Experimental data taken from the supplement of paper PMC9112550, “Optimization of the antimicrobial peptide Bac7 by deep mutational scanning” (BMC Biology, 2022).

What follows are sequences tested on Escherichia coli TOP10 (assay: shrunken log2 fold change of peptide-encoding DNA abundance (4.5 h post-induction vs induction); higher = less antimicrobial activity (less host growth inhibition)). Conditions: time post-induction: 4.5 h; library: site-saturation at positions 5, 18, 19, 20.
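Note: peptides expressed intracellularly from a pBAD plasmid library in pooled LB shake-flask culture, induced with 0.3% L-arabinose, DNA abundance read by NGS, three biological replicates, DESeq2 with apeglm shrinkage.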

Row | Sequence | shrunken log2 fold change
1 | RRIRERPPRLPRPRPRPAMRPRP | 0.59
2 | RRIRERPPRLPRPRPRPAPFPRP | -0.244
3 | RRIRERPPRLPRPRPRPAPMPRP | 0.116
4 | RRIRERPPRLPRPRPRPARAPRP | 0.522
5 | RRIRERPPRLPRPRPRPARVPRP | -0.505
6 | RRIRERPPRLPRPRPRPAVPPRP | 0.0842
7 | RRIRERPPRLPRPRPRPAVTPRP | -0.13
8 | RRIRERPPRLPRPRPRPAVVPRP | -0.171
9 | RRIRERPPRLPRPRPRPAWGPRP | -0.00226
10 | RRIRERPPRLPRPRPRPAWKPRP | -0.0447
11 | RRIRERPPRLPRPRPRPAWVPRP | 0.174
12 | RRIRERPPRLPRPRPRPAYWPRP | 0.000956
13 | RRIRERPPRLPRPRPRPCAEPRP | -0.0868
14 | RRIRERPPRLPRPRPRPCAKPRP | 0.00616
15 | RRIRERPPRLPRPRPRPCCGPRP | -0.18
16 | RRIRERPPRLPRPRPRPCCPPRP | -0.159
17 | RRIRERPPRLPRPRPRPCCQPRP | -0.485
18 | RRIRERPPRLPRPRPRPCDFPRP | -0.502
19 | RRIRERPPRLPRPRPRPCDLPRP | -0.01
20 | RRIRERPPRLPRPRPRPCDMPRP | -0.0119
21 | RRIRERPPRLPRPRPRPCFKPRP | -0.0311
22 | RRIRERPPRLPRPRPRPCFRPRP | -0.511
23 | RRIRERPPRLPRPRPRPCFSPRP | -0.0538
24 | RRIRERPPRLPRPRPRPCHTPRP | -0.0292
25 | RRIRERPPRLPRPRPRPCICPRP | -0.0733

Row | Sequence | shrunken log2 fold change
26 | RRIRERPPRLPRPRPRPCIRPRP | -0.152
27 | RRIRERPPRLPRPRPRPCIVPRP | -0.427
28 | RRIRERPPRLPRPRPRPCKDPRP | -0.117
29 | RRIRERPPRLPRPRPRPCKMPRP | -0.427
30 | RRIRERPPRLPRPRPRPCNHPRP | -0.567
31 | RRIRERPPRLPRPRPRPCQLPRP | -0.265
32 | RRIRERPPRLPRPRPRPCQNPRP | -0.0177
33 | RRIRERPPRLPRPRPRPCSVPRP | -0.0625
34 | RRIRERPPRLPRPRPRPCVLPRP | 0.0248
35 | RRIRERPPRLPRPRPRPCVSPRP | -0.0843
36 | RRIRERPPRLPRPRPRPCWLPRP | -0.0175
37 | RRIRERPPRLPRPRPRPCWMPRP | -0.239
38 | RRIRERPPRLPRPRPRPCWRPRP | 0.27
39 | RRIRERPPRLPRPRPRPDAIPRP | -0.166
40 | RRIRERPPRLPRPRPRPDCDPRP | -0.121
41 | RRIRERPPRLPRPRPRPDCGPRP | 0.0191
42 | RRIRERPPRLPRPRPRPDCLPRP | -0.428
43 | RRIRERPPRLPRPRPRPDCPPRP | -0.559
44 | RRIRERPPRLPRPRPRPDDCPRP | -0.0573
45 | RRIRERPPRLPRPRPRPDDKPRP | -0.433
46 | RRIRERPPRLPRPRPRPDEHPRP | -0.274
47 | RRIRERPPRLPRPRPRPDEVPRP | 0.0489
48 | RRIRERPPRLPRPRPRPDEWPRP | -0.215
49 | RRIRERPPRLPRPRPRPDFRPRP | -0.0858
50 | RRIRERPPRLPRPRPRPDGTPRP | 0.0123

Row | Sequence | shrunken log2 fold change
51 | RRIRERPPRLPRPRPRPDHQPRP | -0.223
52 | RRIRERPPRLPRPRPRPDIEPRP | -0.0223
53 | RRIRERPPRLPRPRPRPDIIPRP | 0.0463
54 | RRIRERPPRLPRPRPRPDIPPRP | -0.366
55 | RRIRERPPRLPRPRPRPDKEPRP | -0.0205
56 | RRIRERPPRLPRPRPRPDKHPRP | 0.236
57 | RRIRERPPRLPRPRPRPDLEPRP | -0.0701
58 | RRIRERPPRLPRPRPRPDLIPRP | -0.0979
59 | RRIRERPPRLPRPRPRPDMGPRP | -0.265
60 | RRIRERPPRLPRPRPRPDNHPRP | -0.802
61 | RRIRERPPRLPRPRPRPDNTPRP | -0.489
62 | RRIRERPPRLPRPRPRPDPEPRP | -0.159
63 | RRIRERPPRLPRPRPRPDQCPRP | -0.308
64 | RRIRERPPRLPRPRPRPDRDPRP | -0.0369
65 | RRIRERPPRLPRPRPRPDRNPRP | -0.25
66 | RRIRERPPRLPRPRPRPDTLPRP | -0.00753
67 | RRIRERPPRLPRPRPRPDTRPRP | 0.0127
68 | RRIRERPPRLPRPRPRPDVDPRP | 0.0225
69 | RRIRERPPRLPRPRPRPDVFPRP | -0.0359
70 | RRIRERPPRLPRPRPRPDVIPRP | -0.502
71 | RRIRERPPRLPRPRPRPDYPPRP | 0.00237
72 | RRIRERPPRLPRPRPRPEDWPRP | 0.351
73 | RRIRERPPRLPRPRPRPEFIPRP | -0.335
74 | RRIRERPPRLPRPRPRPEIAPRP | -0.0389
75 | RRIRERPPRLPRPRPRPEICPRP | 0.162
